Results reported in patent US20260250410A1 (SICHUAN HUIYU PHARMACEUTICAL, published 2026).
Where a chain is given by its changes, count along the chain named.

T1: HuCDCP1-A (human, UniProt Q9H5V8 30-430)
T1 construct: range 30-430; expressed in HEK-293T, purified by Fc/his tag; also called human CDCP1-A; membrane-distal region of CDCP1; not shown: Fc or his tag
T1 sequence (looked up): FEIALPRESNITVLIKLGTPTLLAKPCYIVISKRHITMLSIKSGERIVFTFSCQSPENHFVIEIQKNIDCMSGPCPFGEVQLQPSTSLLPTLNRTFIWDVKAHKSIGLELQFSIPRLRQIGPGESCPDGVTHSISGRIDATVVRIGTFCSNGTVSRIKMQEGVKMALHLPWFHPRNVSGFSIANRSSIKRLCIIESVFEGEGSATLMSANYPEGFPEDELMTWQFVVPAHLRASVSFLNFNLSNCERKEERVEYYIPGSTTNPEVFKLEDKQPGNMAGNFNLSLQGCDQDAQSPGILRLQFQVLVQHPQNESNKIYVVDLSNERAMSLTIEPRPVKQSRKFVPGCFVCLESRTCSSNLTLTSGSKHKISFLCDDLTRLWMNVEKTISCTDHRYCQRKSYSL

T2: CynoCDCP1 (Macaca fascicularis, UniProt A0A2K5VLA8 30-667)
T2 construct: extracellular domain; also called Macaca fascicularis CDCP1; monkey CDCP1; not shown: Fc or his tag
T2 sequence: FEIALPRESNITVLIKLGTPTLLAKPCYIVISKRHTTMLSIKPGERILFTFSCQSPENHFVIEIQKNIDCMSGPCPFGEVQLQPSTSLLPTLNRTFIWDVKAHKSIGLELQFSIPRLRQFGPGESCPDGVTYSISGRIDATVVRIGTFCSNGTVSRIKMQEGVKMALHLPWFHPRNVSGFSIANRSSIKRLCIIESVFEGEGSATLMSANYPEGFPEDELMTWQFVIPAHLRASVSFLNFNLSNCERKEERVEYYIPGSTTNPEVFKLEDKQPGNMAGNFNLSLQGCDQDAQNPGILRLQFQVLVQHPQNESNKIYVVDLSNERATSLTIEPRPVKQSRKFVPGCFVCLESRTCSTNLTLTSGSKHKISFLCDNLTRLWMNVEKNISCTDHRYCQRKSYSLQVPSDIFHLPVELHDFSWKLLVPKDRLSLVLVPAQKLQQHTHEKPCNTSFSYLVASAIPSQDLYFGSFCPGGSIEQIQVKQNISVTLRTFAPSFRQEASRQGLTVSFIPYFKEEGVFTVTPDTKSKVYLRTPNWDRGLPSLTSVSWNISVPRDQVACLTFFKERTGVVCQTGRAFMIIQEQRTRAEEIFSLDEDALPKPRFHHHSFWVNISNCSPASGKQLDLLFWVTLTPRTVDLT

T3: RatCDCP1 (rat, UniProt D3ZVA1 29-666)
T3 construct: extracellular domain; not shown: Fc or his tag
T3 sequence: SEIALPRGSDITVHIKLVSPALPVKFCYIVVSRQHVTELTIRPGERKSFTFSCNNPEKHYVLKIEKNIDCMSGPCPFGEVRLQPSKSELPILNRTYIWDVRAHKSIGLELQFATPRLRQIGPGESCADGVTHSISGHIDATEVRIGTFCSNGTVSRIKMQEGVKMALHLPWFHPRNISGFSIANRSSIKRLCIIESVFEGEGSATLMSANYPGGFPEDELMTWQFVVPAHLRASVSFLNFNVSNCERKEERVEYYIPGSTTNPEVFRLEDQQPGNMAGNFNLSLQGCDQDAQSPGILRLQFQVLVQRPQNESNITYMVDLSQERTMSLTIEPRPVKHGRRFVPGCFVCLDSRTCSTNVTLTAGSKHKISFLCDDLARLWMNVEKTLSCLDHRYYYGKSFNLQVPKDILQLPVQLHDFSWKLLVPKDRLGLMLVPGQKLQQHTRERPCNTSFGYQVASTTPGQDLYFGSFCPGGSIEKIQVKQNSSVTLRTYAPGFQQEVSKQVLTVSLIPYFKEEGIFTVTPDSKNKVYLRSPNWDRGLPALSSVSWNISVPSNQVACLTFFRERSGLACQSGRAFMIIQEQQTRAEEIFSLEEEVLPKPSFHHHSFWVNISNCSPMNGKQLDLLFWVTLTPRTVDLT

B1: 5B8 (antibody, V domains shown)
VH: EVQLKESGGGLVQPGGSLRISCATSGLTFTHYHMSWVRQPPGKAPEWLAIIRNKAYGYTTDYSASVRGRFTISRDDSQSILYLQMNTLRAEDSATYYCVREGGYGYDGTFAYWGQGTTVTVSS
VL: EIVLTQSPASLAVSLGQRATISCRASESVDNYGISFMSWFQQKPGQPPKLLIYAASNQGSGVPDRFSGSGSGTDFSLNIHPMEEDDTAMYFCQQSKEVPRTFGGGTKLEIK
notes: murine hybridoma mAb
B2: 8C9 (antibody, V domains shown)
VH: B1 VH with A90P
VL: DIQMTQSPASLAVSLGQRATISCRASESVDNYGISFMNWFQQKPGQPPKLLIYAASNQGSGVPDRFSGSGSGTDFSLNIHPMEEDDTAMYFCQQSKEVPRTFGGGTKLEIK
notes: murine hybridoma mAb
B3: 3F1A11 (antibody, V domains shown)
VH: EVKLVESGPGLVKPSQSLSLTCTVTGYSITSDYAWNWIRQFPGNKLEWMGYISYNTYTSYNPSLKSRISVTRDTSKNQFFLQLKSVTIEDTATYFCAGGDYYGTGAVDYWGQGTTVTVSS
VL: EIVLTQSPLSLPVSLGDQASISCRSRQTLVHTNGNTYLDWYLQKPGQSPKLLIYKVSIRFSGVPDRFSGSRSGTDFTLKISRVEAEDLGIYYCFQGSHVPWTFGGGTKLEIK
notes: murine hybridoma mAb
B4: 14A10C5 (antibody, V domains shown)
VH: EVKLVESGPGILQPSQTLSLTCSFSGFSLSTSGMGVSWIRQPSGKGLEWLAHIYWDDEKRYNPSLKSRLTISKDTSSNQVFLKITSVDTADTATYYCAREGSANWEAMDYWGQGTTVTVSS
VL: DIVMTQAALSLPVSLGDQASISCRSSQNIVYTNGITYLEWYLQKPGQSPKLLIYKVSNRFSGVPDRFSGSGSATDFTLKISRVEAEDLGVYYCFQSSHVPWTFGGGTKLEIK
notes: murine hybridoma mAb; also called 14A10CS
B5: 10D2 (antibody, V domains shown)
VH: EVQLQQSGPELKKPGETVKISCKASGYTFTDYSMHWVKQAPGKGLKWMGWINTETGQPTYADDFKGRFAFSLETSASSAYLQINNLKNEDTATYFCTRTFYYDYVGDYWGQGTTVTVSS
VL: DIVMTQSHKFMSTSVGDRVSITCKASQDVSTAVAWYRQKPGQSPKLLIYWASTRHTGVPDRLTGSGSGTDFALTINSVQAEDLALYYCQQHSSTPYTFGGGTKLEIK
notes: murine hybridoma mAb
B6: 3B12H5 (antibody, V domains shown)
VH: EVQLQQSGTVLARPGASVKMSCKASGYSFTIYWVHWVKQRPGQGLEWIGAVYPGNDDTSYNQNFKGKAKLTAVTSATTAYMELSSLTIDDSAVYYCTRHTYDEVFDYWGQGTTVTVSS
VL: DIVMTQSPSSLSVSLGDRVTITCKASEDIYYRLAWYQQKPGNAPRLLISGGTNLEAGIPSRFSGSGSGKDYTLSITSLQTEDVAIYYCQHYWNTPWTFGGGTKLEIK
notes: murine hybridoma mAb; also called 3B12HS

Target: T1, HuCDCP1-A
Assay: SPR (Caterra or Biacore), antigen immobilized

EC50	Binder	binding result
–	B1	no binding (tested: 150 nM highest concentration)
–	B2	no binding (tested: 150 nM highest concentration)
127 nM	B3	–
–	B4	no binding (tested: 150 nM highest concentration)
0.747 nM	B5	–
52.3 nM	B6	–

Target: T2, CynoCDCP1
Assay: SPR (Caterra or Biacore), antigen immobilized

EC50	Binder
0.136 nM	B1
0.564 nM	B2
115 nM	B3
98.3 nM	B4
16.1 nM	B5
4.5 nM	B6

Target: T3, RatCDCP1
Assay: SPR (Caterra or Biacore), antigen immobilized

EC50	Binder	binding result
18 nM	B1	–
30.5 nM	B2	–
17 nM	B3	–
–	B4	no binding (tested: 150 nM highest concentration)
41.1 nM	B5	–
–	B6	no binding (tested: 150 nM highest concentration)
